These results are taken from US20180305702A1.

The target in assay [1] is cell surface MHC class I K^b molecules presenting the OVA257-264 SIINFEKL peptide (murine). Nature of the assay: flow cytometry, K^b-SIINFEKL positive population of DC2.4 cells infected with the SIINFEKL minigene Lm (positive control). Background: Flow cytometry measures light scatter and fluorescence of single cells or particles in a stream.
Assay [2] concerns the target H-2K^b on DC2.4 cells not presenting SIINFEKL (cells infected with a non-SIINFEKL-expressing Lm strain; K^b-SIINFEKL negative populations) (murine). The assay can be described thus: flow cytometry, DC2.4 cells infected with a non-SIINFEKL-expressing Lm strain at MOI 20.
Assay [3] addresses cell surface MHC class I K^b molecules presenting the OVA257-264 SIINFEKL peptide (murine). The assay can be described thus: flow cytometry, DC2.4 cells infected with ADXS31-2142 at MOI 20, stained five hours post-infection.
For assay [4] the target is unchanged. Nature of the assay: flow cytometry, K^b-SIINFEKL positive population of DC2.4 cells infected with Lm expressing PSA-PSMA-SIINFEKL
Assay [5] deals with H-2K^b on DC2.4 cells not presenting SIINFEKL (cells infected with a non-SIINFEKL-expressing Lm strain; K^b-SIINFEKL negative populations) (murine). Nature of the assay: flow cytometry, K^b-SIINFEKL negative populations of infected DC2.4 cells.
Assay [6] deals with cell surface MHC class I K^b molecules presenting the OVA257-264 SIINFEKL peptide (murine). The assay can be described thus: flow cytometry, K^b-SIINFEKL positive population of DC2.4 cells infected with Lm expressing PSA-Survivin-SIINFEKL

On to “Alexa Fluor 647 conjugated 25D-1.16 antibody”, for which the Mean fluorescence intensity (MFI) in assay [1] worked out at 14900 MFI; in assay [4], 2040 MFI; in assay [5], 300 MFI; in assay [6], 4780 MFI. Moreover, the percentage of Alexa647+ DC2.4 cells came out at 0.37% in assay [2] and 14.6% in assay [3].
